Consider 1 molecule from patent publication US20230340071A1 (published 2023).

Assay [1] has as its target T1, human IL-2 receptor (IL-2Rβγc) on cells (human, UniProt P14784 27-551; P31785 23-369).
T1 sequence 1: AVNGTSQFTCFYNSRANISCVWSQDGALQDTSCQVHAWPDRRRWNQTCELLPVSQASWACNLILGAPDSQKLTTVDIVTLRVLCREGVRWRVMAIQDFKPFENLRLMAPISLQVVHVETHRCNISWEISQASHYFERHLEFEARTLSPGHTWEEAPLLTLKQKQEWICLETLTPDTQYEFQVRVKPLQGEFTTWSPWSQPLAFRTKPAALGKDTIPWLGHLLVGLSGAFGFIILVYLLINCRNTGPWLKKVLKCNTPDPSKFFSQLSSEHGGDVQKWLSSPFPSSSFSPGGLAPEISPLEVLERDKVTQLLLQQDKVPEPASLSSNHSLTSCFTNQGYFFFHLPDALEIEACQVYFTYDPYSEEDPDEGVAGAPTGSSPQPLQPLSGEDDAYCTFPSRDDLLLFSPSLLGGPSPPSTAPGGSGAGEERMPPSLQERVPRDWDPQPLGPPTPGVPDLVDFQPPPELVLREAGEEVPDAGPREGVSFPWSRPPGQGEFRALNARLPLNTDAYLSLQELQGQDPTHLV
T1 sequence 2: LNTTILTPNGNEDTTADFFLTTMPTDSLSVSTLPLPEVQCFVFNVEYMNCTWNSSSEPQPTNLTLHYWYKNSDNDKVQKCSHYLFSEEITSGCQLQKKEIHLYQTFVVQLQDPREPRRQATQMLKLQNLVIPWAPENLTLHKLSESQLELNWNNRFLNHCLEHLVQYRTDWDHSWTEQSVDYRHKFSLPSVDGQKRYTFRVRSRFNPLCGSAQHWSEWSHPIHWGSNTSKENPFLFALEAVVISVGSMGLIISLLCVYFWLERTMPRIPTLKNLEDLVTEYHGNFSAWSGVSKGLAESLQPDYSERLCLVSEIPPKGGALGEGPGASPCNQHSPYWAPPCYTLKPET
The assay is described as follows: cell-based or functional assay.

In assay [2] the target is T2, Biotinylated hIL2RG (human, UniProt P31785 23-262, limits assumed, biotinylated (site not stated)).
T2 construct: also called human common gamma receptor (hIL2RG); hIL-2Rγc
T2 sequence: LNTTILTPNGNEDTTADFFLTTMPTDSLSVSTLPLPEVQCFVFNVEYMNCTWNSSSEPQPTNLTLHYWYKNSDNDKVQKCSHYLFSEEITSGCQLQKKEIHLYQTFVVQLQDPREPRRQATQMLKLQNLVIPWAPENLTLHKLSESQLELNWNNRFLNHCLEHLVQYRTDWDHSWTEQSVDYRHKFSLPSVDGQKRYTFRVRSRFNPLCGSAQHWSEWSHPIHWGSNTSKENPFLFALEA
The assay can be described thus: BLI (Octet RED96), biotinylated hIL2RG on streptavidin sensors, 200 nM protein + 200 nM hIL2RB. The protocol: Biotinylated hIL2RG molecules were immobilized to Streptavidin sensors (SA, ForteBio) at 2 μg/mL in binding buffer (10 mM HEPES, pH 7.4, 150 mM NaCl, 3 mM EDTA, 0.05% surfactant P20, 0.5% non-fat dry milk). After baseline measurement in the binding buffer alone, the binding kinetics were monitored by dipping the biosensors in wells containing 200 nM of protein and 200 nM of hIL2RB for 300 sec. Data were collected in an Octet RED96 (ForteBio) and processed using the instrument's integrated software.
For orientation: BLI is a label-free optical method that tracks binding on a fibre tip over time.

Assay [3] addresses T1, human IL-2 receptor (IL-2Rβγc) on cells. The assay can be described thus: cell-based or functional assay. The source holds these as a separate data set.
Assay [4] deals with T3, hIL-2RBG (biotinylated hIL2RG on the sensor with hIL2RB in solution) (UniProt P14784 27-240; P31785 23-262, biotinylated (site not stated)).
T3 chain 1: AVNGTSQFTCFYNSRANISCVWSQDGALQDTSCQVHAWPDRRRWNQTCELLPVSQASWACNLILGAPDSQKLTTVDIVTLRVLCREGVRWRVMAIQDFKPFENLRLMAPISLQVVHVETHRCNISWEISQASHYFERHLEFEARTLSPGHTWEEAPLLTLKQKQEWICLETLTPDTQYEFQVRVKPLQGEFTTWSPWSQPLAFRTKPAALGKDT
T3 chain 2: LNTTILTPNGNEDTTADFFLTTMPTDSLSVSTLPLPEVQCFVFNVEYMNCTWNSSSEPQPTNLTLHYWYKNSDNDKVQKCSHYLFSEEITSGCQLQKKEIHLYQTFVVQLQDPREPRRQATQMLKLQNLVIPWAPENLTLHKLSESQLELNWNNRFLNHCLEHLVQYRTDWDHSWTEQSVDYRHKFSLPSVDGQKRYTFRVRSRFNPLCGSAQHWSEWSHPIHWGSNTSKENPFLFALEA
The assay is described as follows: BLI competition, inhibition of hIL-2 binding.

Assay [5] has as its target T4, hIL2RB-fc chimera (human, UniProt P14784 27-240).
T4 construct: also called hIL2 receptor beta; hIL-2Rβ; not shown: Fc part of the bought chimera (captured on anti-human IgG Fc biosensors)
T4 sequence: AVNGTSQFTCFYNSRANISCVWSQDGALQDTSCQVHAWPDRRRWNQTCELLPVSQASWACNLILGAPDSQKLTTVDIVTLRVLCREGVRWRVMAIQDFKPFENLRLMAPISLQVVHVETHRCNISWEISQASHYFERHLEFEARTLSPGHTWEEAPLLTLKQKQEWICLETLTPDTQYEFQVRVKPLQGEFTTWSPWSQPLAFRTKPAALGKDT
The assay is described as follows: BLI (Octet RED96e), hIL2RB-fc (Symansis) on anti-human IgG Fc sensors. The procedure: For this purpose, sensors were soaked in samples containing 20 nM of hIL2RB-fc chimera (Symansis) for 300 sec. […] Finally, sensors were removed from the protein samples and dipped in buffer solutions to promote and measure dissociation (1500 sec). The buffer used to prepare all the samples and soak the sensors was HBS-EP+from GE Healthcare, which contains 10 mM HEPES, 150 mM NaCl, 3 mM EDTA and 0.05% v/v surfactant P20, pH 7.4. Data were acquired at 30° C. using an Octet RED96e system (ForteBio) and processed using the instrument's integrated software. Kinetics were fitted to a 1:1 binding model after subtracting a buffer signal baseline and the Kd values were calculated.

In assay [6] the target is T4, hIL2RB-fc chimera. The assay can be described thus: BLI competition: hIL2RG-fc on sensor, dilutions of P4 + 20 nM Neo-2/15 + 50 nM hIL2RB-fc; competitor Neo-2/15; read-out binding to hIL2RBG. The protocol: (§1) All samples were prepared using HBS-EP+buffer from GE Healthcare, which contains 10 mM HEPES, 150 mM NaCl, 3 mM EDTA and 0.05% v/v surfactant P20, pH 7.4. Data were acquired at 30° C. using an Octet RED96e system (ForteBio) and processed using the instrument's integrated software. IC50 values were estimated from response vs antagonist concentration plots.

The target of assay [7] is T5, Biotinylated hIL2RB (UniProt P14784 27-240, biotinylated (site not stated)).
T5 chain: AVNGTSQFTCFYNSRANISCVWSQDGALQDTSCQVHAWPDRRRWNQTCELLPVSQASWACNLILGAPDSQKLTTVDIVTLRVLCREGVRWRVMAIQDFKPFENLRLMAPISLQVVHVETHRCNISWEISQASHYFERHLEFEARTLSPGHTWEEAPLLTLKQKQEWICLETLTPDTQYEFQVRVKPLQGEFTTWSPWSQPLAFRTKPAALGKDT
The assay can be described thus: BLI.

Assay [8] addresses T6, mouse IL-2 beta receptor (mouse, UniProt P16297 27-240).
T6 construct: also called mIL2RB; beta part of mIL2RBG
T6 sequence (looked up): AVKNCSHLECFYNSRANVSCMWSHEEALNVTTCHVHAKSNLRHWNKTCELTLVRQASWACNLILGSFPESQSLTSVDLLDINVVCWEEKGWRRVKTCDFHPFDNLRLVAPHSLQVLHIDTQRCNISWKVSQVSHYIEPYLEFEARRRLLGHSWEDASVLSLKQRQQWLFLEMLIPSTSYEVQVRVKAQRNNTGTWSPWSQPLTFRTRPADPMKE
The assay is described as follows: BLI competition: mIL2RG on sensor, dilutions of P4 + 20 nM Neo-2/15; competitor Neo-2/15; read-out binding to mIL2RBG. The procedure: as §1

Assay [9] has as its target T6, mouse IL-2 beta receptor. The assay is described as follows: method not stated.
For assay [10], the target named is T7, hIL2RG-fc chimera (human, UniProt P31785 23-262).
T7 construct: also called hIL2G; hIL2 receptor gamma; not shown: Fc part of the bought chimera (captured on anti-human IgG Fc biosensors)
T7 sequence: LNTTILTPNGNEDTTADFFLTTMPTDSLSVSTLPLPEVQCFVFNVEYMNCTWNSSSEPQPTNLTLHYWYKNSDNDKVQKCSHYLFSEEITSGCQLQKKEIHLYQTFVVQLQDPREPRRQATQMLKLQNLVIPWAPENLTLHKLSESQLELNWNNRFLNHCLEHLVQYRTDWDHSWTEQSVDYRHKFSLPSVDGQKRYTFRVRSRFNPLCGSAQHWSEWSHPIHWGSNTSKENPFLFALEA
The assay can be described thus: BLI (Octet RED96e), hIL2RG-fc on anti-human IgG Fc sensors, 200 nM P4 + 200 nM hIL2RB-fc. The protocol: All samples were prepared using HBS-EP+ buffer from GE Healthcare, which contains 10 mM HEPES, 150 mM NaCl, 3 mM EDTA and 0.05% v/v surfactant P20, pH 7.4. Data were acquired at 30° C. using an Octet RED96e system (ForteBio) and processed using the instrument's integrated software.

B1: Protein 4 (P4) (designed binder)
chain: PKKKIQLYAEHALYDAEMILKIVKTNSPPAEEELEDYAFNFELILEEIARLFESGDQKDEAEKAKRMKEWMKRIKTTASEDEQEEMANRIRKILEEWIRS
notes: P2 with H8Y and K33E; N-terminal 6xHis tag and thrombin site in the expression vector; also called S4
On to B1, for which the “Binding Inhibition IC50 (inhibition of hIL-2 pSTAT5 signaling, human pan T cells, 0.1 nM hIL2)” value in assay [1] came out at 0.1 nM. In assay [1], the “Binding Inhibition IC50 (inhibition of hIL-2 pSTAT5 signaling, human pan T cells, 1 nM hIL2)” value came out at 0.45 nM. The “Binding Inhibition IC50 (inhibition of hIL-2 pSTAT5 signaling, human pan T cells, 10 nM hIL2)” value in assay [1] worked out at 3.3 nM. The binding result in assay [2] and in [10] was “no binding (tested: 200 nM)” throughout. Besides, the “Signaling Inhibition IC50 (1 nM hIL-2, pSTAT5, CD4+ T cells)” value in [3] was found to be 1.46 nM. Further, the “Signaling Inhibition IC50 (1 nM hIL-2, pSTAT5, CD8+ T cells)” value in assay [3] is 0.3 nM. In [3], the “Signaling Inhibition IC50 (1 nM hIL-2, pSTAT5, all T cells)” value was found to be 0.49 nM. In addition, the IC50 (usually the midpoint of a concentration-inhibition curve) in assay [4] worked out at 88 nM; in assay [6], 0.9 nM; in assay [8], 67.6 nM. For the same molecule, the dissociation constant Kd (in general, the equilibrium constant for the complex coming apart) in assay [5] was 0.06 nM; in [7], < 1 nM; in assay [9], 70.6 nM.
